Source: patent publication US20250340659A1 (PETMEDIX, published 2025)
Numbering of substitutions follows the chain as printed.

T1: canine OX40L, full length membrane form, expressed on HEK293 cells (canine)
T1 construct: also called OX40L expressing HEK; HEK OX40L cells
T1 chain: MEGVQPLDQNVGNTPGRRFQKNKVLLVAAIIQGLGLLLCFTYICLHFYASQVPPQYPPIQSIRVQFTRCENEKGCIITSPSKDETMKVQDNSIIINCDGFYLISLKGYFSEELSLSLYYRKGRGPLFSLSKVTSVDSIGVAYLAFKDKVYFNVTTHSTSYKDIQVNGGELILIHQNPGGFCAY

T2: recombinant canine OX40L ECD-TNCc-HIS protein (canine)
T2 construct: also called Trimeric OX40L probe (HIS tag); trimeric canine OX40L
T2 chain: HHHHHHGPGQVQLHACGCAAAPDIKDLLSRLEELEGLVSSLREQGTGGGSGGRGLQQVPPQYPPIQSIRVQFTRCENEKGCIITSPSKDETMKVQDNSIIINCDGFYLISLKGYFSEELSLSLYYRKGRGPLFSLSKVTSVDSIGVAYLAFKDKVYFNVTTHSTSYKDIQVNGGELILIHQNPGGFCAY

B1: PMX051 (antibody, V domains shown)
VH: EVQLVESGGDLVKPGGSLRLSCVASGFSFNTYHMNWVRQAPGKGLHWVAFINSDGGGTSYADTVKGRFTISRDYAKNTLYLQMNSLRAEDTAVYYCVSGSIWTHFDYWGQGTLVTVSS
VL: SYVLTQLPSVSMTLRQTAHITCGGDIIGSKSVYWYQQKLGQAPVLIIYRDTNRPTGIPERFSGASSGNTATLTISGALAEDEADYYCQVWDSSTQAVFGGGTHLTVL
notes: also called PMX51
B2: PMX105 (antibody, V domains shown)
VH: B1 VH with S28T, D54G, G56S, A61E, K65Q, V97A, S98C
VL: B1 VL with M12V, L45M, T51N, A77S, S93R, V97L
B3: PMX041 (antibody)
heavy: EVHLVESGGDLVKPEGSLRLSCVVSGFTFTTNDMSWVRQAPGKGLQWVAYITSDGRITTYTDAVKGRFTISRDNAKNTLYLQMNSLRTEDTAVYYCAKHSSNWSRGRFGLDYWGHGTSLFVSSASTTAPSVFPLAPSCGSTSGSTVALACLVSGYFPEPVTVSWNSGSLTSGVHTFPSVLQSSGLYSLSSMVTVPSSRWPSETFTCNVAHPASKTKVDKPVPKRENGRVPRPPDCPKCPAPESLGGPSVFIFPPKPKDTLLIARTPEVTCVVVDLGREDPEVQISWFVDGKQMQTAKTQPREEQFNGTYRVVSVLPIGHQDWLKGKQFTCKVNHIGLPSPIERTISKARGQAHQPSVYVLPPSREELSKNTVSLTCLIKDFFPPDIDVEWQSNGQQEPESKYRTTPPQLDEDGSYFLYSKLSVDKSRWQRGDTFICAVMHEALHNHYTQKSLSHSPGK
VL: SYVLTQLPSKNVTLKQPAHITCGGDNIGSKSVHWYQQKLGQAPVLIIYYDSSRPTGIPERFSGANSGNTATLTISGALAEDEADYYCQVWDNSASVFGGGTHLTVL
notes: also called PMX41
B4: PMX039 (antibody)
heavy: B3 heavy with H3Q, T30I, S53N, I57Y, T59S, W103Y, S104Y, L110M
VL: B3 VL with S52T, N92S
notes: also called PMX39
B5: PMX050 (antibody, V domains shown)
VH: EVQLVESGGDLVKPEGSLRLSCVVSGFTFTTYDMSWVRQAPGKGLQWVAYITNDGRITTYTDAVKGRFTISRDNAKNTLYLQMNSLRTVDTGVYYCARHSSSWSRGRFGLDYWGHGTSVFVSS
VL: B3 VL with S29R, S31G
notes: also called PMX50
B6: PMX025 (antibody, V domains shown)
VH: EVHLVESGGDLVKPGGSLRLSCVASGFTFSSYHMSWVRQAPGKGLQWVAFINAGEISTNYADAVKGRFTISRDNAKNILYLQMNSLRAEDTAVYYCASGHIWIRPFDYWGQGTLVTVSS
VL: SYVLTQLPSMSVTLRQTARITCEGDSIGRKRVNWYQQKLGQVPVLIIYDDDSRPSGIPERFSGANSGNTATLTISGALAEDEAEYYCQVWDSSNNWVFGEGTQLTVL
notes: also called PMX25
B7: PMX027 (antibody, V domains shown)
VH: B6 VH with S31T, L79F, S98T
VL: B6 VL with D25N
notes: also called PMX27
B8: PMX049 (antibody, V domains shown)
VH: EVQLVESGGDLVKPGGSLRLSCVASGFTFNNYEMYWVRQAPGKGLEWVARIYESGSTTFSAEAVTGRFTISRDNAKNMVYLQMNSLRAEDTAVYYCASASSSSWRFDYWGQGTLVTVSS
VL: SYVLTQLPSVSVTLGQTARITCGGDSIGRKNVCWFQQRLGQAPELIIYDDRSRPSGIPERFSGANSGNTATLTISGALAEDEADYYCQVWDSSTGVFGGGTHLTVL
notes: also called PMX49
B9: PMX037 (antibody, V domains shown)
VH: B8 VH with V5L, N30S, I51F, F59Y, T65P, V79A
VL: B8 VL with R29S, C33Y, R38K, E44V
notes: also called PMX37
B10: PMX048 (antibody, V domains shown)
VH: B8 VH with S56T, F59Y, V64D, Y80F, S103T
VL: B8 VL with C33Y, R38K, E44V
notes: also called PMX48
B11: PMX104 (antibody, V domains shown)
VH: EVQLVESGGDLVRPGGSLRLSCVASGFTFSNYHMSWVRQAPGKGLQWVAFINSGGTSTTYADAVRGRFTTSRDYAKNTLYLQMNSLRAEDTAVYYCTSGSIWTHFDYWGQGTLVTVSS
VL: SFVLTQLPSVSVTLRQTARITCGGDIIGSKSVYWFQQKLGQAPILIIYRDDNRPTGIPERFSGASSGNTATLIISGALAEDEAHYYCQVWDSSSKAMFGGGTHLTVL

Target: T1, canine OX40L, full length membrane …
Assay: flow cytometry
Procedure: (§1) CHO supernatants diluted in FACS buffer (PBS containing 3% FBS) at 1, 5 or 10 μg/ml were used to screen for their binding capacity to canine OX40L using a cell-based assay. In brief, HEK293 or MEF cells (or any other commonly used cell lines) expressing canine OX40L at the cell surface are incubated with 100 μll of FACS buffer containing the candidate antibody for 30′ on ice. Cells are washed with 150 μl FACS buffer followed by centrifugation at 300 g for 3 min. The cell pellet is resuspended in FACS buffer containing a 1:1000 dilution of a fluorescently labelled secondary antibody recognising the canine Fc region of the test antibody for 30 min in the dark, followed by washing with 150 μl FACS buffer. Cells are resuspended in FACS buffer and flow cytometry performed using either a […] cytometer, followed by data analysis using FlowJo (FIG. 6 and Table 4).

In order of rising “GEO mean OX40L expressing HEK” value:
1. B2  584000
2. B9  1.42e+06
3. B4  1.52e+06
4. B3  1.56e+06
5. B7  1.65e+06
6. B6  2.83e+06
7. B5  3.08e+06
8. B8  3.5e+06
9. B10  3.92e+06
10. B1  3.94e+06

Target: T2, recombinant canine OX40L ECD-TNCc-HIS …
Assay: SPR Koff (kd1)
Procedure: (§2) Affinity (Kd) of OX40L antibodies is measured by SPR, using a recombinant canine OX40L ECD-TNCc-HIS protein (Seq ID 811) as the capturing agent (FIG. 5B).
(§3) Functional affinity is determined using a Biakore 8K (Cytiva). in brief, purified OX40L ECD-TNCc-HIS protein is covalently bound at low density to the surface of a CM5 sensor chip (Cytiva) by amine coupling, using the manufacturer's recommended protocol. Candidate antibodies are subsequently passed across the chip surface at a range of concentrations and affinity determined using the dedicated software (Biacore Insight Evaluation Software). Curves were fitted using a bivalent analyte binding model.

In order of falling koff:
1. B9  0.0183 s⁻¹
2. B7  0.0161 s⁻¹
3. B3  0.0134 s⁻¹
4. B6  0.0129 s⁻¹
5. B4  0.0128 s⁻¹
6. B10  0.00485 s⁻¹
7. B8  0.00211 s⁻¹
8. B11  0.00174 s⁻¹
9. B2  0.00174 s⁻¹
10. B1  0.00119 s⁻¹
11. B5  0.000525 s⁻¹

Target: T2, recombinant canine OX40L ECD-TNCc-HIS …
Assay: SPR Koff (kd2)
Procedure: as §2, §3

In order of falling koff:
1. B8  22 s⁻¹
2. B10  21 s⁻¹
3. B1  4.81 s⁻¹
4. B11  1.23 s⁻¹
5. B2  1.23 s⁻¹
6. B5  0.161 s⁻¹
7. B6  0.00169 s⁻¹
8. B4  0.00139 s⁻¹
9. B9  0.000862 s⁻¹
10. B7  0.000505 s⁻¹
11. B3  0.000409 s⁻¹

Target: T1, canine OX40L, full length membrane …
Assay: cell-based or functional assay

In order of rising “% Signal Inhibition Average” value:
1. B11  31%
2. B10  69.9%
3. B6  72.6%
4. B5  76.6%
5. B9  78.4%
6. B3  80.1%
7. B7  80.4%
8. B4  80.6%
9. B1  84.1%
10. B2  84.2%
11. B8  84.7%

In order of falling “% Signal Inhibition Rep1” value:
1. B6  87.9%
2. B3  86.4%
3. B9  85.7%
4. B2  85.4%
5. B8  84.6%
6. B1  82.2%
7. B4  81.7%
8. B7  72.2%
9. B5  68.7%
10. B10  57.5%
11. B11  31%

In order of falling “% Signal Inhibition Rep2” value:
1. B2  94.8%
2. B4  86.6%
3. B7  83.5%
4. B5  83.3%
5. B9  79.8%
6. B8  79.3%
7. B3  78.2%
8. B1  75.3%
9. B10  69.3%
10. B6  61.7%
11. B11  28.1%

In order of rising “% Signal Inhibition Rep3” value:
1. B11  33.9%
2. B6  68.3%
3. B9  69.8%
4. B2  72.5%
5. B4  73.6%
6. B3  75.6%
7. B5  77.6%
8. B10  82.9%
9. B7  85.5%
10. B8  90.1%
11. B1  94.7%

Target: T2, recombinant canine OX40L ECD-TNCc-HIS …
Assay: SPR KD1, bivalent analyte model
Procedure: as §2, §3

In order of falling Kd:
1. B3  1590 nM
2. B7  316 nM
3. B9  308 nM
4. B6  195 nM
5. B4  46.4 nM
6. B11  17.6 nM
7. B2  17.6 nM
8. B8  15.6 nM
9. B10  12.2 nM
10. B1  7.92 nM
11. B5  1.31 nM

Target: T1, canine OX40L, full length membrane …
Assay: flow cytometry, OX40L HEK minus WT HEK
Procedure: as §1

In order of falling GEO mean difference:
1. B1  3.92e+06
2. B10  3.9e+06
3. B8  3.48e+06
4. B5  3.06e+06
5. B6  2.81e+06
6. B7  1.62e+06
7. B3  1.53e+06
8. B4  1.49e+06
9. B9  1.39e+06
10. B2  580000
